The numbers were not newly measured in article PMC12634839, which cites them from elsewhere.

The data set deals with FAM19A5 (Homo sapiens) (UniProt Q7Z5A7). The data set is described as follows: SPR. For orientation: Surface plasmon resonance follows binding to a sensor surface in real time, without labels.
Chain of UniProt Q7Z5A7 (Q7Z5A7 44-132): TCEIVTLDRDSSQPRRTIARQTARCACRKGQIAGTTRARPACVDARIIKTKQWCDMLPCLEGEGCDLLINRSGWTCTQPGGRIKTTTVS

Take LRRC4B 453-576 (from UniProt Q9NT99): the Kd was 32 pM.

What is called Kd is the concentration at which binding is half-saturated.
